Tests used:
[1] = target: T1, His6-AGR2, purified recombinant, O95994; experiment: non-reducing SDS-PAGE and immunoblot of disulfide-bonded complexes; details: remark: other sources report otherwise
T1 chain: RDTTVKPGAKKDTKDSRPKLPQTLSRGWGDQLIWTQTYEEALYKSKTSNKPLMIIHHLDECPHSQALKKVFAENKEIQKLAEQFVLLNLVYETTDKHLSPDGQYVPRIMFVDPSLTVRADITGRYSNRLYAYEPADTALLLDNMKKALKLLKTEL

[2] = target: T2, wild type AGR2, enforced expression, O95994; experiment: as above; details: remark: other sources report otherwise
T2 chain: T1 chain

B1: His6-AGR2, purified recombinant, O95994 21-175 (natural protein)
chain: T1 chain
stoichiometry N [1]: 2

B2: wild type AGR2, enforced expression, O95994 21-175 (natural protein)
chain: T1 chain
stoichiometry N [2]: 2

From article doi:10.1101/2021.01.13.426390
